Laboratory results taken from PMC5737660.
Like-named read-outs stand apart in the source and are kept apart here.

Key:
[1] = target: CdiI^NC101-His6 immunity protein, crystallography construct (E. coli NC101); assay: crystal structure
[2] = target: CdiI^NC101-His6 immunity protein, crystallography construct (E. coli NC101); assay: crystal structure; remark: listed apart in the source

Question: With “CdiI^NC101-His6 immunity protein, crystallography construct (natural protein)” as the substance, how does the stoichiometry N [1] read?
Answer: 2

Question: And the stoichiometry N [2]?
Answer: 2
